Source: patent US20260193377A1 (FULL LIFE TECHNOLOGIES HK, published 2026)

B1: anti-GCC single domain antibody SEQ ID NO. 8 (VHH)
VHH: EVDLVESGGGLVQPGGSLRLSCGASGFTFSHYAMSWVRQAPGKALEWVSDISSGGGITKYADSVKGRFTISRDDAQNTLYLQMNSLKPEDTAVYYCAKASAIGYLAYWMRNPVEYDTRGQGTLVTVSS
notes: Alpaca-derived sdAb
B2: anti-GCC single domain antibody SEQ ID NO. 7 (VHH)
VHH: QVQLVESGGGLVQPGGSLRLSCAASGSRFMTSSMGWYRQTPGKQREWVATATSSDSTLYADAVKGRFTISRDNAKNTVYLQMNSLKPQDTAVYYCFTTPPTFWGHGTQVTVSS
notes: Alpaca-derived sdAb
B3: anti-GCC single domain antibody SEQ ID NO. 9 (VHH)
VHH: QKQLVESGGGLVQPGGSLRLSCAASGETLSNYNIGWFRQAPGKEREGVSCISQIGFTNYADSVKGRFTLFRASAENTVYLQMNSLKPEDTAVYYCAVTGGRWASCSFLPLRQDFESWGQGTLVTVSS
notes: Alpaca-derived sdAb

target: T1, Human GUCY2C (captured on anti-human Fc capturing antibody, SPR) (human); assay: SPR (Biacore T200), human GUCY2C captured via anti-human Fc, sdAb as analyte, 1:1 fit
T1 construct: also called human GCC; guanylyl cyclase C
T1 sequence (P25092 24-430): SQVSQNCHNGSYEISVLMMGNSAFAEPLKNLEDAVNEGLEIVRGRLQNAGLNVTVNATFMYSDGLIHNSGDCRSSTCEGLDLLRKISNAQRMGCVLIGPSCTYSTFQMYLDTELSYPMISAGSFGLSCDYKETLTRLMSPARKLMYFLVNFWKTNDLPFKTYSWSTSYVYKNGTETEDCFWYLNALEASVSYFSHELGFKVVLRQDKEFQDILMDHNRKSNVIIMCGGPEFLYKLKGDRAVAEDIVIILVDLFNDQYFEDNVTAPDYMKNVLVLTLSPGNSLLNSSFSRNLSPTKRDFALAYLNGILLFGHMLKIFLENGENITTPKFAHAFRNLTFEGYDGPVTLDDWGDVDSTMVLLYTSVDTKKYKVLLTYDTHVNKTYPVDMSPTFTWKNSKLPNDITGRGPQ
Protocol: Anti-GCC sdAbs were diluted with 1×HBS-EP buffer. Human GUCY2C was captured on anti-human Fc capturing Ab-immobilized sCM5 chip. Then anti-GCC sdAb samples were injected with a flow rate of 10 μl/min for 180 sec, followed by dissociation for 800 sec. The binding curves were locally fitted with Biacore® T200 analysis software (BIAevaluation) using a 1:1 Langmuir binding model.

In order of falling Kd:
1. B2  2.53 nM
2. B3  0.116 nM
3. B1  0.0259 nM

In order of rising koff:
1. B1  6.7e-05 s⁻¹
2. B2  0.000395 s⁻¹
3. B3  0.00103 s⁻¹

In order of rising kon:
1. B2  156000 M⁻¹ s⁻¹
2. B1  2.59e+06 M⁻¹ s⁻¹
3. B3  8.84e+06 M⁻¹ s⁻¹

target: T2, GCC expressed on T84 cells (UniProt P25092 24-1073, limits assumed); assay: flow cytometry on T84 cells expressing GCC, 300 nm [sic], PE-anti human Fc secondary; Blank 30.7
T2 construct: whole, on cells; also called guanylyl cyclase C; GUCY2C
T2 sequence (P25092 24-1073 limits assumed): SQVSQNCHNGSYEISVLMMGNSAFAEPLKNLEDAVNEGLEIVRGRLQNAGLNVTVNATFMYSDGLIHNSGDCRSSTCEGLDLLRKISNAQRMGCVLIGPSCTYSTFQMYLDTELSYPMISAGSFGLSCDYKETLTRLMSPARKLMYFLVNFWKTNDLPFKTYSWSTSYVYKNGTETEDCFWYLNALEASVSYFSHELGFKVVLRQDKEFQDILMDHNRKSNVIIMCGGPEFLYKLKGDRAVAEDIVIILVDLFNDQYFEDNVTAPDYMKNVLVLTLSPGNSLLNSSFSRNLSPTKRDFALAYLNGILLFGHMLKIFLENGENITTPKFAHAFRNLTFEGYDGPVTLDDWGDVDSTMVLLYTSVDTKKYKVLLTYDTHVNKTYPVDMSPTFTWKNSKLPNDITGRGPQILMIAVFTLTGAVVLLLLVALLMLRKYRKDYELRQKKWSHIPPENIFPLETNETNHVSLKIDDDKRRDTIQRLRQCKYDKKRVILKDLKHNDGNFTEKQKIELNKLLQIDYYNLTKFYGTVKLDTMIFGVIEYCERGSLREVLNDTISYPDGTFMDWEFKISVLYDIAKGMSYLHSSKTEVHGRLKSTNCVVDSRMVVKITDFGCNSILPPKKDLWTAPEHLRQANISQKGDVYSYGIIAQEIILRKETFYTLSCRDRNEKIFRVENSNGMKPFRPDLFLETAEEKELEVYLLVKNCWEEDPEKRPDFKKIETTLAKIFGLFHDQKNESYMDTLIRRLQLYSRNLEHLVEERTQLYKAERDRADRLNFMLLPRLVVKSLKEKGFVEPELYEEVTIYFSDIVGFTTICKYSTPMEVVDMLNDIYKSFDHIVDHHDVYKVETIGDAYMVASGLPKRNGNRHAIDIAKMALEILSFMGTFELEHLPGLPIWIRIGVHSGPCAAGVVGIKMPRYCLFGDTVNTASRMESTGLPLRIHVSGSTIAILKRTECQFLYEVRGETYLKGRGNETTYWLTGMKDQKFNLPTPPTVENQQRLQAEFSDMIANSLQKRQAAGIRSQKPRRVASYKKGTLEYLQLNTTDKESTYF
Protocol: T84 cells expressing GCC were used to evaluate the binding affinity of the anti-GCC sdAbs. Briefly, 50 μL T84 cells at density of 3×10⁶ cells/mL were incubated with 50 μL anti-GCC sdAbs at 4° C. for 2 hours. After incubation, the cells were washed three times with 400 μL FACS buffer, resuspended with PE-anti human Fc 2nd antibody (eBioscience 12-4998-82, 1:1000 dilution) and incubated at 4° C. for 60 min. Then the cells were collected and subject to FACS analysis.

In order of falling “Geometric mean MFI” value:
1. B1  669
2. B3  447
3. B2  268
